Results reported in patent US20170369592A1, “NOVEL ANTI-FIBROBLAST ACTIVATION PROTEIN (FAP) ANTIBODIES AND USES DERIVED THEREOF” (Mabimmune Diagnostics AG, priority 2015, published 2017).

What was measured:
[1] = target: directly coated FAP peptides mixture (cFAP); experiment: Direct ELISA, mixture of FAP-specific peptides directly coated; type: binding, human; conditions: non-linear regression
Method: ELISA assays were performed with varying antibody concentrations to validate the binding of the exemplary antibodies of the present invention to FAP and to be able to determine their half maximal effective concentration (EC50). For the exemplary recombinant human NI-206.82C2, NI-206.59B4, NI-206.22F7, NI-206.27E8, NI-206.12G4 and NI-206.17A6 antibodies, 96-well microplates (Costar, Corning, USA) were coated with FAP, with a mixture of the 3 peptides or with BSA (Sigma-Aldrich, Buchs, Switzerland) diluted to a concentration of 5 μg/ml in carbonate ELISA coating buffer (15 mM Na2CO3, 35 mM NaHCO3, pH 9.4) for the direct ELISA. For the capture ELISA, the microplates were coated with mouse anti-His monoclonal antibody (Clontech) diluted to a concentration of 3 μg/ml in PBS, the plates were then blocked, FAP or BSA were diluted to a concentration of 2 μg/ml in PBS and added to the plates to be captured. The binding efficiency of the antibodies was then tested. The exemplary NI-206.82C2 antibody specifically and strongly binds to the captured FAP and less efficiently to the directly coated FAP. The exemplary NI-206.59B4 antibody specifically, strongly and similarly binds to the captured FAP and to the directly coated FAP.
The EC50 values were estimated by a non-linear regression using GraphPad Prism (San Diego, USA) software. […] The binding of NI-206.12G4 towards sFAP was not tested.

FAP = target: T1, FAP (Homo sapiens, UniProt Q12884); experiment: Binding specificity ELISA versus CD26 and unrelated human antigens; conditions: detection antibody at 20, 4 and 0.8 nM
T1 sequence (Q12884 1-760): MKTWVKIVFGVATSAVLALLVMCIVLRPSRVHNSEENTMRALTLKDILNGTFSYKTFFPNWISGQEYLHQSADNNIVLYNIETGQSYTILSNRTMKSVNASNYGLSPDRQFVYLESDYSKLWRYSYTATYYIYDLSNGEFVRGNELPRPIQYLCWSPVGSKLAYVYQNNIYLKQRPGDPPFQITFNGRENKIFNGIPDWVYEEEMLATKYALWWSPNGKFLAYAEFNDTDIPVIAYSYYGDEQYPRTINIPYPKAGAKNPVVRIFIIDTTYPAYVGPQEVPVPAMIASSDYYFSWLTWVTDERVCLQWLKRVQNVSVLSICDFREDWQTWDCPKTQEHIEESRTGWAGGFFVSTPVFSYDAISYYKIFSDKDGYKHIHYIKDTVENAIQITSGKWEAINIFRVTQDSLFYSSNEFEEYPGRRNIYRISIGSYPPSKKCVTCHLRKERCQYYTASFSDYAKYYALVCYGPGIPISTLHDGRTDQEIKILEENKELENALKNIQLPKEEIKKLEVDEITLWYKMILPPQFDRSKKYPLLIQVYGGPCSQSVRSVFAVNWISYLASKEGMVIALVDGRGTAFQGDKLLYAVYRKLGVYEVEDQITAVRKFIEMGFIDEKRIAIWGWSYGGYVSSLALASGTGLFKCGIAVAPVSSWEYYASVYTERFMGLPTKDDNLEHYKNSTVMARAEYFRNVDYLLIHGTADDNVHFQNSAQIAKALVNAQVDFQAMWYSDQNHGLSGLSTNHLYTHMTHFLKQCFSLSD
Method: A mouse anti-6×-histidine tag antibody (Clonetech) was coated at a concentration of 3 μg/ml in PBS to a 96 well ELISA plate, the plates were then blocked with 5% BSA in PBS, and enzymatically active recombinant human FAP with an N-terminus 6× histidine tag was added to the plates to be captured. The binding efficiency of NI-206.82C2 (at 20 nM, 4 nM, and 0.8 nM) against sFAP was then tested by 1 hour incubation, followed by washing with PBS and detection with an HRP-labelled goat anti-human antibody (Jackson Immunoresearch) using a colormetric assay. To assess NI-206.82C2 binding other targets, recombinant human CD26 and fourteen other unrelated recombinant human proteins (A-N) were individually added to a 96-well ELISA plate in triplicate, and the binding efficacy of NI-206.82C2 was evaluated. (FIG. 7A)

[2] = tested on: multiple myeloma cells and tumor stroma in the syngeneic MOPC315.BM mouse model; experiment: Immunofluorescence on murine multiple myeloma tissues; conditions: Cy5 labelled antibody, MOPC315.BM BALB/c mice
Method: BALB/c mice were injected with 2×10^6 of the murine multiple myeloma cell line […] intravenously. BALB/c mice were injected with a vehicle-only control. Bone tissue was harvested and fixed in 4% PFA, decalcified in 10% EDTA (pH 7.4), embedded in paraffin before being sectioned (4 μm) and rehydrated. Then, CD138 mAb (Clone 281-2, BD Pharmingen) and Cy5 labelled NI-206.82C2 were used to identify MOPC315.BM.Luc cell infiltration, and NI-206.82C2 binding to these cells and surrounding stromal cells in the tissue sections. Stained tissue sections were then imaged using a fluorescent microscope (FIG. 13).

4T1 breast tumor = experiment: In-vivo fluorescence imaging in 4T1 breast tumor bearing Balb/c mice; conditions: fluorescently labeled antibody, tumor mouse model
Method: These antibodies are designated as A680-82C2 (Alexa 680 labelled 82C2) and A680-43A11 (Alexa 680 labelled 43A11).
A murine cancer model was generated by the injection of 100′000 4T1 cultured breast tumor cells orthotopically into the 2nd left breast of Balb/c immunocompetent mice and allowed to grow for 7 days. Prior to in vivo imaging, the animals were shaved and de-epilated to remove fur for minimal absorbance and scattering of the incident optical light. In-vivo imaging was performed with the Maestro 500 imaging system (Cambridge Research Inc, Woburn, USA). For A680-82C2 detection, a band pass filter from 615 nm-665 nm and a highpass filter over 700 nm were used for excitation and emission light respectively, and fluorescence was detected by a CCD camera (cooled to 11° C.). A series of images were acquired at different wavelengths and then subjected to spectral unmixing (deconvolution of collected optical spectra; this enabled the unmixing of the Alexa680 fluorescence pattern from tissue auto-fluorescence and other spectral contributions).
The 4T1-breast tumor bearing Balb/c mice (3-4 in each group) were then injected on day 7 after innoculation with 2 mg/kg of A680-82C2 or A680-43A11. Whole mice images were acquired at the following timepoints: before antibody injection, immediately after antibody injection, 6h, 24h, 48h, and 6d after antibody injection.

EC50, binding to directly coated FAP peptides mixture (cFAP) [1]: did not show any binding
colorimetric signal against recombinant human FAP versus CD26 and unrelated human antigens (FAP): significantly greater
B1: NI-206.82C2: recombinant human memory B cell-derived monoclonal anti-FAP IgG1 antibody, variable regions in FIG. 1A, FAP inhibitory (antibody, V domains shown)
VH: QVQLQQSGPGLVKPSQTLSLTCAISGDSVSSNSVTWNWIRQSPSRGLEWLGRTYYRSKWYNDYAVSVKGRITINPDTSKNQFYLQLKSVTPEDAAVYYCARDSSILYGDYWGQGTLVTVSS
VL: QAVLTQPSSLSASPGASASLTCTLPSGINVGTYRIFWFQQKPGSPPQYLLSYKSDSDNHQGSGVPSRFSGSKDASANAGILLISGLQSEDEADYYCMIWHSSAWVFGGGTKLTVL
binding to multiple myeloma cells and tumor stroma [2]: binds
antibody concentration after 6 d post antibody injection (4T1 breast tumor): almost zero
